Reference: the supplement of paper PMC10724198
± gives the standard deviation of the averaged measurements.

Test system: Saccharomyces cerevisiae
Test: protein stability index of tFT-peptide fusion (C-terminal peptide) (PSI (0-1 scale)); higher = more stable (slower turnover)
Conditions: temperature: 30 C
Protocol: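 MPS profiling in S. cerevisiae of the yeast C-terminome library: the last 12 aa of each annotated ORF are fused to the C-terminus of a sfGFP-mCherry timer, after a GGGS linker. Cells are FACS-sorted into 8 mCherry/sfGFP bins and deep-sequenced. PSI runs from 0 (unstable) to 1 (stable); wild type and das1Δ backgrounds, two technical replicates each.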

[1] = genetic background: das1 deletion

Sequence	protein stability index [1]	protein stability index (genetic background: wild type)
DWAPGKQLEMNH [JAC1 C-terminal 12 aa]	0.699 ± 0.018	0.743 ± 0.042
EAADEADEADEE [RPS9A C-terminal 12 aa]	0.6914 ± 0.0068	0.747 ± 0.017
EAEQTKAPKIQI [TMC1 C-terminal 12 aa]	0.6728 ± 0.0043	0.701 ± 0.012
EAHREQIGGATY [SMT3 C-terminal 12 aa]	0.691 ± 0.016	0.676 ± 0.011
EAVDRIVSHDEL [SEC20 C-terminal 12 aa]	0.702 ± 0.014	0.6744 ± 0.00081
ECRKKNYFKCKH [ATG39 C-terminal 12 aa]	0.692 ± 0.0091	0.187 ± 0.0042
EDAFLKDVFQQS [KGD1 C-terminal 12 aa]	0.7394 ± 0.0043	0.782 ± 0.093
EDESLNSSRSTT [RCF3 C-terminal 12 aa]	0.6802 ± 0.0033	0.691 ± 0.013
EDGVGDPREEDE [RAD51 C-terminal 12 aa]	0.693 ± 0.023	0.6258 ± 0.0013
EDITVQVPDTPT [EST1 C-terminal 12 aa]	0.708 ± 0.017	0.674 ± 0.017
EDPDFLQHALQS [GRX3 C-terminal 12 aa]	0.707 ± 0.013	0.704 ± 0.013
EDSSDSSDSDSD [BDF2 C-terminal 12 aa]	0.669 ± 0.015	0.675 ± 0.068
EEDIFYRNQVVF [YKR075C C-terminal 12 aa]	0.738 ± 0.0081	0.777 ± 0.059
EEDPEYFQHALQ [GRX4 C-terminal 12 aa]	0.71049 ± 4e-05	0.715 ± 0.049
EEEKRHGIYLKC [GUP1 C-terminal 12 aa]	0.694 ± 0.029	0.647 ± 0.019
EEFNKQLKDIEA [YOR289W C-terminal 12 aa]	0.69 ± 0.026	0.661 ± 0.017
EEGQTQPEEESA [BUR6 C-terminal 12 aa]	0.691 ± 0.0078	0.692 ± 0.033
EERDRRRAQQGL [RPS4A C-terminal 12 aa]	0.6948 ± 0.0053	0.692 ± 0.05
EFDDYESRMHGI [EAR1 C-terminal 12 aa]	0.73 ± 0.029	0.694 ± 0.0086
EGEDEELDIDDI [TIF11 C-terminal 12 aa]	0.671 ± 0.0097	0.6717 ± 0.0065
EGIETTHNKRIR [AMA1 C-terminal 12 aa]	0.675 ± 0.018	0.666 ± 0.036

Sequence	protein stability index [1]	protein stability index (genetic background: wild type)
EGKWEPAGEVHQ [SEC13 C-terminal 12 aa]	0.706 ± 0.012	0.7167 ± 0.0048
EGVVLGQRRDIV [SCP1 C-terminal 12 aa]	0.696 ± 0.028	0.672 ± 0.0097
EHLWNCFFHGSD [IRC20 C-terminal 12 aa]	0.73 ± 0.012	0.731 ± 0.061
EHVGKQCGYKYH [STP3 C-terminal 12 aa]	0.705 ± 0.023	0.7096 ± 0.0013
EIFNDFSKRCCF [CDC43 C-terminal 12 aa]	0.7326 ± 0.0031	0.73168 ± 0.00037
EIMLGKNLLITS [YNL109W C-terminal 12 aa]	0.619 ± 0.0087	0.503 ± 0.028
EIVRNFSLFNMV [ARP3 C-terminal 12 aa]	0.697 ± 0.031	0.6866 ± 0.0035
EKANDIGFNKFR [RPS29A C-terminal 12 aa]	0.678 ± 0.014	0.7106 ± 0.006
EKDNSQKIEAKK [SDH4 C-terminal 12 aa]	0.69 ± 0.012	0.697 ± 0.11
EKEALWKFAKRL [ATP10 C-terminal 12 aa]	0.699 ± 0.032	0.3037 ± 0.00067
EKKYLNQSQNQA [BSD2 C-terminal 12 aa]	0.684 ± 0.035	0.692 ± 0.059
EKLISLSQSMEN [ATP11 C-terminal 12 aa]	0.718 ± 0.0096	0.785 ± 0.11
EKVTNTLSSLKF [LTV1 C-terminal 12 aa]	0.694 ± 0.0074	0.669 ± 0.017
ELAKKWKQEQAL [CLF1 C-terminal 12 aa]	0.676 ± 0.011	0.667 ± 0.011
ELFTILHDLTAA [TPS3 C-terminal 12 aa]	0.718 ± 0.086	0.6612 ± 0.005
ELPSYKKTSKQN [PSG1 C-terminal 12 aa]	0.722 ± 0.03	0.701 ± 0.077
ELSMIMEHFSQQ [RPS12 C-terminal 12 aa]	0.72 ± 0.02	0.7056 ± 0.0036
ELTLFLSYKSYS [YGR045C C-terminal 12 aa]	0.683 ± 0.02	0.64 ± 0.017
ELTRLVDSKRKR [HFA1 C-terminal 12 aa]	0.717 ± 0.045	0.667 ± 0.011
ELWTLQAPELNL [YKL036C C-terminal 12 aa]	0.72 ± 0.021	0.702 ± 0.04
ENAGKIFFNETE [YHR213W-A C-terminal 12 aa]	0.733 ± 0.029	0.684 ± 0.033

Sequence	protein stability index [1]	protein stability index (genetic background: wild type)
ENKPDSTFGIIL [YOR170W C-terminal 12 aa]	0.718 ± 0.019	0.749 ± 0.11
ENLITILDSNYI [ISR1 C-terminal 12 aa]	0.74 ± 0.0095	0.696 ± 0.01
ENLTQKKKQSAN [PCT1 C-terminal 12 aa]	0.703 ± 0.0058	0.65 ± 0.011
ENRPGPYEFRET [FMP41 C-terminal 12 aa]	0.6916 ± 0.0065	0.779 ± 0.053
EPKEIVDGKVLK [CAM1 C-terminal 12 aa]	0.692 ± 0.021	0.708 ± 0.034
EPTLKLSNIYRQ [YBR174C C-terminal 12 aa]	0.7092 ± 0.0033	0.71982 ± 0.00048
EQDAILLKKHIS [NAT5 C-terminal 12 aa]	0.714 ± 0.033	0.3 ± 0.029
ERAIKTVRYLLY [YOL079W C-terminal 12 aa]	0.678 ± 0.008	0.631 ± 0.021
ERKLSTKKVSVE [YHR078W C-terminal 12 aa]	0.707 ± 0.052	0.7 ± 0.032
ERTKLREKLEII [PXA1 C-terminal 12 aa]	0.7064 ± 0.0059	0.677 ± 0.077
ESDLAAARSEDK [VTH1 C-terminal 12 aa]	0.7237 ± 0.0031	0.659 ± 0.012
ESEKELYNATRA [NHP6B C-terminal 12 aa]	0.68817 ± 0.00058	0.716 ± 0.034
ESNSALDFTRLA [SSU1 C-terminal 12 aa]	0.707 ± 0.025	0.712 ± 0.059
ESQPAPKEAPDY [SNP1 C-terminal 12 aa]	0.674 ± 0.028	0.702 ± 0.022
ETLEAETVKIDI [POL31 C-terminal 12 aa]	0.69571 ± 0.00029	0.7012 ± 0.0013
EVDDDGEIEGLF [MIS1 C-terminal 12 aa]	0.7072 ± 0.0051	0.684 ± 0.022
EVDIGLYNCADY [ADE4 C-terminal 12 aa]	0.714 ± 0.05	0.667 ± 0.02
EVISSYQIDMIV [HIM1 C-terminal 12 aa]	0.657 ± 0.013	0.62 ± 0.0077
EVLHEWKSHINQ [BIO3 C-terminal 12 aa]	0.743 ± 0.017	0.6763 ± 0.0056
EVVRFYTIEAKL [AAT2 C-terminal 12 aa]	0.771 ± 0.032	0.724 ± 0.085
EWEEKQGMDFVR [GPN2 C-terminal 12 aa]	0.7083 ± 0.0027	0.685 ± 0.0095

Sequence	protein stability index [1]	protein stability index (genetic background: wild type)
EYSWEKPKKLEF [SAM2 C-terminal 12 aa]	0.7075 ± 0.0037	0.698 ± 0.035
FALVLAYMRLLT [FMP32 C-terminal 12 aa]	0.4219 ± 0.0012	0.237 ± 0.012
FDELFISTEVEL [TCA17 C-terminal 12 aa]	0.718 ± 0.018	0.6851 ± 0.0011
FDVIKECQTLSN [PUG1 C-terminal 12 aa]	0.683 ± 0.037	0.6484 ± 0.0017
FELAKVSFDNKR [YKR104W C-terminal 12 aa]	0.736 ± 0.031	0.707 ± 0.095
FERNYFPYSAVY [CLG1 C-terminal 12 aa]	0.6077 ± 0.0039	0.608 ± 0.018
FEYEPPKFNLSE [GTB1 C-terminal 12 aa]	0.689 ± 0.025	0.659 ± 0.037
FFSFIITIPFMV [YNL146W C-terminal 12 aa]	0.305 ± 0.01	0.2042 ± 0.0015
FFTTCTIGCYDA [BUD7 C-terminal 12 aa]	0.6871 ± 0.0048	0.6861 ± 0.0047
FGKRRFFYRDLA [YPR146C C-terminal 12 aa]	0.6901 ± 0.0029	0.693 ± 0.014
FHDWFIRQFVSN [SNO1 C-terminal 12 aa]	0.73 ± 0.0093	0.321 ± 0.034
FIWQNVLMWLMG [YIF1 C-terminal 12 aa]	0.7 ± 0.011	0.54 ± 0.017
FKKSYKGVSKNL [MGM1 C-terminal 12 aa]	0.704 ± 0.013	0.695 ± 0.022
FLGIELHAFFVS [YOL035C C-terminal 12 aa]	0.6355 ± 0.0029	0.635 ± 0.058
FLPFFLRFLCIN [YML116W-A C-terminal 12 aa]	0.618 ± 0.021	0.206 ± 0.021
FQVVGKKKGKRF [SYH1 C-terminal 12 aa]	0.715 ± 0.009	0.688 ± 0.049
FRGKRYHTIKRQ [MSS51 C-terminal 12 aa]	0.709 ± 0.0045	0.643 ± 0.035
FRLQEEQTNMRS [MSM1 C-terminal 12 aa]	0.713 ± 0.02	0.758 ± 0.02
FRQSWQIDIGTW [YAL037C-B C-terminal 12 aa]	0.7097 ± 0.0042	0.676 ± 0.017
